1 protein from paper doi:10.1101/2022.11.21.517443 (bioRxiv, 2022) can be followed below.

Several values for one entry are separate records, joined by “and”; a condition that tells them apart may be missing. Identical values can stand only once.

The data set concerns the molecule itself. As to the kind of experiment: single-particle cryo-EM 2D classification.

B1: Escherichia coli glutamine synthetase (enzyme, UniProt P0A9C5 1-469, looked up)
chain: MSAEHVLTMLNEHEVKFVDLRFTDTKGKEQHVTIPAHQVNAEFFEEGKMFDGSSIGGWKGINESDMVLMPDASTAVIDPFFADSTLIIRCDILEPGTLQGYDRDPRSIAKRAEDYLRSTGIADTVLFGPEPEFFLFDDIRFGSSISGSHVAIDDIEGAWNSSTQYEGGNKGHRPAVKGGYFPVPPVDSAQDIRSEMCLVMEQMGLVVEAHHHEVATAGQNEVATRFNTMTKKADEIQIYKYVVHNVAHRFGKTATFMPKPMFGDNGSGMHCHMSLSKNGVNLFAGDKYAGLSEQALYYIGGVIKHAKAINALANPTTNSYKRLVPGYEAPVMLAYSARNRSASIRIPVVSSPKARRIEVRFPDPAANPYLCFAALLMAGLDGIKNKIHPGEAMDKNLYDLPPEEAKEIPQVAGSLEEALNELDLDREFLKAGGVFTDEAIDAYIALRREEDDRVRMTPHPVEFELYYSV
For B1, the stoichiometry N (usually a count of units in the complex or per binding partner) was 10 subunits and 8 subunits.
